{"source": "paper PMC7159914", "target": "VP3 (capping enzyme) (Rotavirus A, UniProt Q1WK45 1-835)", "assay": "BLI"}
{"binder": "GGCUUUUA (ssRNA)", "note": "[biotinylated 8-mer ssRNA]", "values": [{"measurement": "binding result", "value": "binds"}]}
